The results in this text go back to patent US20210214414A1 (Pfizer, published 2021).

One assay concerns the target T1, Mouse SLIT2-N (mouse, UniProt Q9R1B9 26-1113, limits assumed).
T1 construct: domain: SLIT2-N; d2-labelled in the HTRF assay
T1 sequence (looked up): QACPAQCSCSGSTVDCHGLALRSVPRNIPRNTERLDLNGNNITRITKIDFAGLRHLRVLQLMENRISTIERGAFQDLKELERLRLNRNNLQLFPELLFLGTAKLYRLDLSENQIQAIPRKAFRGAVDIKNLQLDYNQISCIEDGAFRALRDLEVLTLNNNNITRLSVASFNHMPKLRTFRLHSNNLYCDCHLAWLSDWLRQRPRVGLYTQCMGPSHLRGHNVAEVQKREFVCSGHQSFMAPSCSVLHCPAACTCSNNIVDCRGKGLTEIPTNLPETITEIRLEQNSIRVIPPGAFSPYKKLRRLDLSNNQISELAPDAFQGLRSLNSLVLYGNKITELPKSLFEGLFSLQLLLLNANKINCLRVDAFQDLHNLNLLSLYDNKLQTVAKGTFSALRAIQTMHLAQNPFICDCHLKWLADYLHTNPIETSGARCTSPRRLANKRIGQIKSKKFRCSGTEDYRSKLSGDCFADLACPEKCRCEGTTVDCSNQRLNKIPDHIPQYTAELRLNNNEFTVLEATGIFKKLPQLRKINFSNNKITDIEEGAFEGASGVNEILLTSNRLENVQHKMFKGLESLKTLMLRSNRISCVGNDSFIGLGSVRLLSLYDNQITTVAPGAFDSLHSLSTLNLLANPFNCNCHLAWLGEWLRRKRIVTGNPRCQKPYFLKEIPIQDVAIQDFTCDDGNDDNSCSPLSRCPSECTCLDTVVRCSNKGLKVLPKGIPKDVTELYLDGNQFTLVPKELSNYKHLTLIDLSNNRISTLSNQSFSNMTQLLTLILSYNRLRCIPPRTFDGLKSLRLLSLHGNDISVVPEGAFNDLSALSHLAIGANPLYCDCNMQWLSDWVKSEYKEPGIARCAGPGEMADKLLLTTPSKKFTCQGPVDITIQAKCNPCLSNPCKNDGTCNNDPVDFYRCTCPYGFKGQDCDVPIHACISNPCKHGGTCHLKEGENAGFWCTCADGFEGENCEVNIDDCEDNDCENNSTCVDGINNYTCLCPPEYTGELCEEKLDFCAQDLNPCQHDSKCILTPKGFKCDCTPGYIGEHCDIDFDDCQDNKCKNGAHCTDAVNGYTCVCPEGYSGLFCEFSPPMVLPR
In words: HTRF competition: d2-labelled mouse SLIT2-N binding to human ROBO2 on HEK293 cells; geometric mean, n=3. How it is done:
(§1) After incubation, fluorescence at 665 nm and 620 nm was measured on an Envision multilabel plate reader. The HTRF Ratio was calculated as follows: fluorescence at 665 nm/fluorescence at 620 nm×10,000. […] The IC₅₀ for each SLITx-N was determined using an 11-point, 4-fold dilution series with a top concentration of 4000 nM.
A general note: TR-FRET usually uses a lanthanide donor and a delayed reading to cut background.

The target of another assay is T2, Mouse SLIT3-N (mouse, UniProt Q9WVB4 34-1119, limits assumed).
T2 construct: domain: SLIT3-N; d2-labelled in the HTRF assay
T2 sequence (looked up): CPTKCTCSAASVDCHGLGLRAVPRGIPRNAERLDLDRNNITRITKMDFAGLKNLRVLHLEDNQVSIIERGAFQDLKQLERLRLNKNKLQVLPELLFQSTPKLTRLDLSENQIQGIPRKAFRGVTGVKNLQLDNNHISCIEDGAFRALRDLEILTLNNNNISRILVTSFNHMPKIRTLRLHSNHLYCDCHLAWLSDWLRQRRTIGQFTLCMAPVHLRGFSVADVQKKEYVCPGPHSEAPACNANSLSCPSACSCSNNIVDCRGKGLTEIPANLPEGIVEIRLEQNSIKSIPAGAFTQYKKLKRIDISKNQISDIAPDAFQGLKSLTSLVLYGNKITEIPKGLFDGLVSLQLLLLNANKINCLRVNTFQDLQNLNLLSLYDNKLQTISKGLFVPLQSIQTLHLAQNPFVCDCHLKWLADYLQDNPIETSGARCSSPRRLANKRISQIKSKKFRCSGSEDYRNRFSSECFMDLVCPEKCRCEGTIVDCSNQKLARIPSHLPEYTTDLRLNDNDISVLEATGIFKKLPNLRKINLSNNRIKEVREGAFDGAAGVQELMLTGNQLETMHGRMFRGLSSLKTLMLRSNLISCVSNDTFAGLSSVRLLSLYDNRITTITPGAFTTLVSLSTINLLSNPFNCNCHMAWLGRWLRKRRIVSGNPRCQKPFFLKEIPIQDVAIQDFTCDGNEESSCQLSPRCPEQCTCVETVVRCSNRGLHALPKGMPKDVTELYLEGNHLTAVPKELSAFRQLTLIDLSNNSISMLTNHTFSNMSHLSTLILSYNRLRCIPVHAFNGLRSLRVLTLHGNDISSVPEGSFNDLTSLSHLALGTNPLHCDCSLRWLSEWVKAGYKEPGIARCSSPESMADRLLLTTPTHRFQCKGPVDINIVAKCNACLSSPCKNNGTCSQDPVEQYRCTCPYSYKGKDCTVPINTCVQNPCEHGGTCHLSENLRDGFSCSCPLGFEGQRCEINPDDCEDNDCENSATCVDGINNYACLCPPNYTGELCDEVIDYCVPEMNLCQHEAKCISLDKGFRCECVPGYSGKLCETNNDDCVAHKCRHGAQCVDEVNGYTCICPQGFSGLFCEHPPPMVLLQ
In words: HTRF competition: d2-labelled mouse SLIT3-N binding to human ROBO2 on HEK293 cells; geometric mean, n=3. Here is the method: as §1

B1: ROBO2-Fc 2.2 (Fc fusion)
chain: SRLRQEDFPPRIVEHPSDVIVSKGEPTTLNCKAEGRPTPTIEWYKDGERVETDKDDPRSHRMLLPSGSLFFLRIVHGRRSKPDEGSYVCVARNYLGEAVSRNASLEVALLRDDFRQNPTDVVVAAGEPAILECQPPRGHPEPTIYWKKDKVRIDDKEERISIRGGKLMISNTRKSDAGMYTCVGTNMVGERDSDPAELTVFERGGSGGSEPKSSDKTHTCPPCPAPEAAGAPSVFLFPPKPKDTLMISRTPEVTCVVVDVSHEDPEVKFNWYVDGVEVHNAKTKPREEQYNSTYRVVSVLTVLHQDWLNGKEYKCKVSNKALPAPIEKTISKAKGQPREPQVYTLPPSREEMTKNQVSLTCLVKGFYPSDIAVEWESNGQPENNYKTTPPVLDSDGSFFLYSKLTVDKSRWQQGNVFSCSVMHEALHNHYTQKSLSLSPG
notes: Labelled with Alexa Fluor 647 in the flow cytometry assay; also called ROBO-Fc 2.2; ROBO2-Fc 2.2-AF647
As to B1, the IC50 turned out to be 5.4 nM in the assay with Mouse SLIT2-N and 4.3 nM in the assay with Mouse SLIT3-N.

As usually defined, the IC50 is the concentration needed to halve the response being measured. A lower IC50 goes with greater potency in that assay.
